Where two headings read alike, the source gives them in different places.

In data set [1] the test system is recombinant MiOMTS. The experiment in a line: In vitro enzymatic assay of recombinant MiOMTS with candidate substrates and SAM as methyl group donor. The data set is classed as biochemical, Mangifera indica. As to conditions: 0.2 mM substrate, 0.01 mM SAM, 30° C. for 30 min; products identified by UHPLC-Orbitrap MS. As to the method: The complete ORF of MiOMTS cDNA was cloned in pGEX-4T vector and the protein was expressed as GST-tag fusion protein in E. coli BL21 (DE3) cells. The protein was purified using GST affinity chromatography and released from the tag using thrombin. […] The purified protein was assayed for its activity with furaneol, caffeic acid, catechol and protocatechuic aldehyde as substrates and S-adenosyl-L-metheonine (SAM) as methyl group donor. The methylation products of these substrates upon MiOMTS enzymatic reaction were identified and analysed on high resolution mass spectrometer. […] In contrast to furaneol and protocatechuic aldehyde, MiOMTS could not use caffeic acid and catechol as the methyl group acceptor.
(§1) The in vitro enzymatic assays were carried out in the lysis buffer containing appropriate amount of protein, 0.2 mM substrate and 0.01 mM S-adenosylmetheonine (SAM) in a final volume of 500 μl reaction. The reaction was incubated at 30° C. for 30 min. For the determination of optimum pH for the enzyme activity, the assays were performed in 50 mM citrate buffer (pH 4.0 and 5.0), 50 mM phosphate buffer (pH 6.0, 6.5, 7.0 and 7.5) and 50 mM Tris buffer (pH 8.0, 8.5 and 9.0) keeping other components in the assay same as above. Similarly, for optimum temperature the assays were performed at 15, 20, 25, 30, 35 and 40° C. Assay products were extracted twice with ethyl acetate; the organic layers were pooled, dried in a concentrator and constituted with methanol. An Accela™ ultra high performance liquid chromatography (UHPLC) system (ThermoFisher, Waltham, USA), coupled online via heated electrospray ionization source (HESI) with a Q-Exactive-Orbitrap mass spectrometer (ThermoFisher), was employed with 20 μL sample injection volume and the chromatograms were obtained by total ion monitoring in a positive ion mode. The products were separated and analysed on Hypercil GOLD C-18 reverse phase column (150 mm×3 mm i. d., particle size 5 μm, Thermo Scientific, Waltham, Mass., USA) with a linear gradient of 95% water acidified with 0.05% formic acid and 5% methanol to 80% methanol and 20% water with the flow rate of […]. The sample manager was maintained at 4° C. Identification of the substrates as well as products were done by comparing the retention time and molecular mass of authentic external standards [furaneol (CAS No. 3658-77-3), mesifuran (CAS No. 4077-47-8), protocatechuic aldehyde (CAS No. 139-85-5) and vanillin (CAS No. 121-33-5)] procured from Sigma Aldrich, USA.

In data set [2] the test system is MiOMTS transcripts. The settings on record: 5DAH ethylene treated vs 20DAH conventionally ripened.
Description: Quantitative real-time PCR was performed using Fast Start Universal SYBR Green master mix (Roche Inc. Indianapolis, Ind., USA) and elongation factor 1α as an endogenous control employing the primers mentioned earlier (Pandit et al., 2010). Transcripts of MiOMTS were amplified using primers;
Quantification was done by ViiA™ 7 Real-Time PCR System (Applied Biosystems, CA, USA) having thermal cycle programme of initial denaturation at 95° C. for 10 min with subsequent 40 cycles of 95° C. for 3 sec and 60° C. for 30 sec followed by a dissociation curve analysis of transcripts. […] The quantification was done for three independent biological replicates separately, each of which was represented by at least three technical replicates. […] The uniformity of expression across the tissues was monitored using elongation factor 1α (EF1α) gene as an endogenous control.
To get better understanding of synthesis of mesifuran during late ripening stages of Alphonso mango and its regulation at transcriptional level, the transcripts of MiOMTS were profiled during the conventional ripening of Alphonso mango. […] To further assess this at transcript level, the transcripts of MiOMTS were analyzed in the fruits which were subjected to the postharvest ethylene treatment.
Data set [3] has as its system recombinant MiOMTS. Description: Optimum pH and temperature for the activity of recombinant MiOMTS using furaneol as a substrate. The data set is classed as biochemical, Mangifera indica. As for the experimental part:
In order to evaluate the optimum biochemical conditions for the activity of recombinant MiOMTS, assays were performed at varied pH and temperatures using furaneol as a substrate. […] In case of temperature, optimum activity was detected at 25° C., with retention of 60% activity at 30° C.
as §1

For `O=C(O)/C=C/c1ccc(O)c(O)c1` [caffeic acid], the “use of substrate as methyl group acceptor (methylation) by MiOMTS” value (shortened to “use of substrate”) in data set [1] is “could not use”.
As for `Oc1ccccc1O` [catechol], in data set [1], the “use of substrate” value is on record as “could not use”.
On to `CC1=C(O)C(=O)C(C)O1` (centres unmarked) [furaneol, 4-hydroxy-2,5-dimethyl-3(2H)-furanone], for which the “use of substrate” value in data set [1] is listed as “successfully used for methylation”.
`C=C` [ethylene]: the “MiOMTS transcript abundance, fold higher than conventionally ripened fruits” value in data set [2] (pulp) was found to be 19 fold; in data set [2] (skin), 82 fold.
In the case of `O=Cc1ccc(O)c(O)c1` [protocatechuic aldehyde], in data set [1], the “use of substrate” value was “successfully used for methylation”.

B1: MiOMTS: O-methyltransferase enzyme protein from Mangifera indica, having SEQ ID No.3, recombinantly expressed in E. coli (protein)
chain: MGSLEVKTLLEGQAEVWQYMFGFADSMVLKSAVELRLADIIHSYGGPMSLSQIASKIDSASPNIPYLGRIMRMLARKGVFGAHRPSEGGDTTYGLTHISTWLRHDSELSLAPMILMENNLWQLAPWHYLSQCVKQGGIAFKKAHGCEMWDFASQNPEFNKLFNDALACTTKIVMRAFLSQYKEGFNNVRSLVDVGGGTGGELAEILKTYPHMKGINFDLPHVVATAPEYDGVSNVGGNMFDAIPNADVIFMKWILHDWSDEACVKILKNCRKAIPEKTGRVVLVEIVLQENGDNMFGNMDVVFDLLMFAHTTGGKERTEPEWKKLLEEGGFPRYNIINIPALPSIIEAYPL
modifications: O-methyltransferase enzyme protein sequence; O-methyltransferase peptide or enzyme sequence
B1: in data set [3], the “optimum pH for activity” value was 7.0. Further, in data set [3], the “optimum temperature for activity” value amounted to 25 °C. The “reduction in the activity” value in data set [3] (20° C.) and in data set [3] (pH 8.5) was “more than 50%” each time. Besides, the retention of activity in data set [3] (30° C., relative to 25° C.) amounted to 60%; in data set [3] (pH 6.0, relative to pH 7.0), 70%; in data set [3] (pH 8.0, relative to pH 7.0), 90%. Also, the activity result in data set [3] (40° C.) is given as “complete inactivation”; in data set [3] (pH 4), “no activity was detected”; in data set [3] (pH 5) it was “no activity was detected”; in data set [3] (pH 9) it was “no activity was detected”.

For the origin of these results see US10563181B2, “Molecular cloning and expression of cDNA encoding O-methyltransferase isolated from Mangifera indica” (COUNCIL OF SCIENTIFIC & INDUSTRIAL RESEARCH, priority 2015, dated 2020).
